Laboratory results taken from US10822385B2, “EGF(A) analogues with fatty acid substituents” (Novo Nordisk A/S, priority 2016, dated 2020).

Biological target: T1, hPCSK9 (Homo sapiens, UniProt Q8NBP7)
T1 construct: purchased Sino Biologicals, China; host or cells: injected into BalBC or NMRI mice
Assay: hPCSK9 challenge model, hepatic LDL-R expression in mice (Western Blot)
Assay type: in vivo, mouse
Conditions: inhibitor 22 nmol/kg, hPCSK9 0.4 mg/kg i.v., healthy control = 100%, hPCSK9 alone = 0%
Method: The aim of this study was to show the change in the LDL receptor expression level in mouse liver in response to inhibiting the action of intravenously injected hPCSK9 with an anti-PCSK9 peptide.
Healthy male BalBC or NMRI mice (Charles River, Germany) are injected with an anti-PCSK9 peptide, either s.c. or i.v. 15-120 minutes before injecting hPCSK9 (Sino Biologicals, China) intravenously in the tail vein at a dose of 0.4 mg/kg. Sixty minutes after the injection of hPCSK9, the animals are anaesthetised in isoflurane and euthanised by cervical dislocation. The liver is then quickly excised and snapfrozen in liquid nitrogen. The livers are kept at −80 degrees celsius until analysis.
Equal protein transfer was confirmed by Ponceau S (Sigma, P7170) staining of the membranes and the membranes were further blocked in blocking buffer (TBS-T, 2% Tween). […] Quantitative analysis of chemiluminescent signals from Western blots was done with MultiGauge software (Fujifilm).
“Vehicle-vehicle” is the group of healthy controls (baseline level), “vehicle-hPCSK9” is the group injected with hPCSK9 alone.
In Table 8, data are presented as percentage change in relation to the window between baseline level in healthy control animals (set to 100%) and the level after down regulation by hPCSK9 alone (set to 0%).

T1 sequence (Q8NBP7 153-692): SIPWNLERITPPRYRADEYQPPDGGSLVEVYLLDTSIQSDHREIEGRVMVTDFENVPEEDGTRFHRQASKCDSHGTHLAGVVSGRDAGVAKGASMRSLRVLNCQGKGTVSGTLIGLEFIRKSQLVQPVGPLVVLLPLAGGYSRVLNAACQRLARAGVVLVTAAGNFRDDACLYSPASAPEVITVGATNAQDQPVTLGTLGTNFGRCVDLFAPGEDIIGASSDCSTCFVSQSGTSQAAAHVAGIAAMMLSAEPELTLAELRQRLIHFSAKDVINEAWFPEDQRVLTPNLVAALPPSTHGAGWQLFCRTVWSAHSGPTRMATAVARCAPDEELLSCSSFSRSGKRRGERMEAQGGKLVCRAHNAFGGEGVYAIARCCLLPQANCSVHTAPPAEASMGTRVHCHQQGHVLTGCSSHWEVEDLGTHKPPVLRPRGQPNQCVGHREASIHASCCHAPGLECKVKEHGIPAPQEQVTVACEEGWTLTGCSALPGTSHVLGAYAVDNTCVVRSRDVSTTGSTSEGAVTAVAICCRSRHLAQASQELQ

Alirocumab: anti-PCSK9 antibody, control molecule in the hPCSK9 challenge model
Percentage of baseline (hepatic LDL-R expression): 157%
